{
  "source": "patent US20100316634A1",
  "about": "(published 2010)",
  "binders": {"B1": {"name": "recombinant Fab of mAb 2B6 with C-terminal hexa-His on the heavy chain (Fab, V domains shown)", "VH": "QVQLKESGPGLVAPSQSLSITCTVSGFSLTSYSVHWVRQPPGKGLEWLGVIWASGGTDYNSALMSRLSISKDNSKSQVFLKLNSLQTDDTAMYYCARDPPSSLLRLDYWGQGTTLTVSS", "VL": "DIVMTQSPSSLSVSAGEKVTMSCKSSQSLLNSGNQKNYLAWYQQKPGQPPKLLIYGASTRESGVPDRFTGSGSGTDFTLSISSVQAEDLAVYYCQNVHSFPFTFGSGTELEIK", "notes": "Expressed in E. coli from pMKFabGene3H after removal of gene III; N-terminal residues may be set by the PCR primers; also called Fab fragment from 2B6; 2B6 Fab; not shown: murine gamma 1 constant part of the Fd (CH1 to hinge); murine kappa constant region"}},
  "key": {"[1]": {"target": "T1, recombinant human interleukin 5 (IL-5) (human, UniProt P05113 20-134, 125I label (Bolton-Hunter reagent) in the receptor binding inhibition and colony lift assays)", "T1 construct": "also called human IL-5; hIL-5", "assay": "optical biosensor"}, "[2]": {"target": "T1, recombinant human interleukin 5 (IL-5)", "assay": "receptor binding inhibition, 125I-IL-5 on Drosophila membranes with the IL-5R alpha chain", "description": "Membrane extracts of Drosophila S2 cells expressing the […] of the human IL-5 Receptor (IL-5R) were used to measure the effect of antibody on IL-5 binding to receptor. To prepare the membranes, 10⁹ cells were pelleted at 1000×g at 4° C. for 10 min. The cell pellet was frozen in a dry ice/ethanol bath for 15 min. The pellet was thawed, resuspended in 10 ml PBS at 4° C. and pelleted at 1000×g for 10 min. The cell pellet was washed 2× in PBS and resuspended in 13.5 ml Hypotonic buffer (10 mM Tris pH 7.5, 3 mM MgCl₂, 1 mM dithiothreitol, 1 mM phenylmethylsulfonyl fluoride, 1 uM leupeptin, 1 uM pepstatin A) and incubated on ice for 5 min. The cell suspension was homogenized in a 15 ml Dounce homogenizer and brought to a final concentration of 0.25 M sucrose with a solution of 2.5 M sucrose. Cell debris was removed by a 15 min centrifugation at 1000×g. Cell membranes were pelleted at 100,000×g at 4° C. for 90 min and resuspended in 50 ml of 10 mM Tris pH 7.5, 3 mM MgCl₂, 250 mM sucrose, and stored at −70° C.\nAssays with Drosophila membranes containing receptor were performed in MultiscreenGV plates (Millipore Corp., Bedford, Mass.) using Drosophila tissue culture medium M3 (Lindquist et al., Drosophila Inf. Serv., 58: 163 (1982)) containing 25 mM HEPES buffer pH 7.2 and 0.1% BSA (Binding Buffer). Wells were pre-blocked with 0.1 ml binding buffer. […] Filters were dried and counted."}},
  "data": [
    {"binder": "B1", "values": [
      {"measurement": "Kd", "setting": "[1]", "result": "~0.09", "unit": "nM"},
      {"measurement": "IC50", "setting": "[2]", "result": "~7.5", "unit": "µg/mL"}
    ]}
  ]
}
